Assay results from patent publication US20180118814A1.

What was measured:
[1] = biological target: HBsAg-L antigen (Beacle, BCL-AG-001) (hepatitis B virus); test: ELISA, plate coated with 1 µg/mL HBsAg-L, anti-human kappa-HRP detection, cell culture supernatant
[2] = biological target: HBsAg-L antigen (Beacle, BCL-AG-001) (hepatitis B virus); test: ELISA, plate coated with 1 µg/mL HBsAg-L, anti-human kappa-HRP detection, purified protein

B1: HBV24G (antibody, human IgG1, kappa, V domains shown)
VH: QVQLVQSGAEVKAPGASVKVSCKASGYTFTSAWMNWVRQAPGQGLEWMGRIYPSGGSTSYAQKFQGRVTMTADKSTSTVYMELSSLRSEDTAVYYCAREYRVARWGQGTLVTVSS
VL: DIVMTQTPLSLSVTPGQPASISCKSSQSLLYSNGKTYLNWLLQKPGQPPQRLIYLVSNRDSGVPDRFSGSGSGTDFTLKISRVEAEDVGVYYCVQGTHFPQTFGGGTKVEIKR
In the case of B1, the EC50 [1] is reported as 0.057 nM and the EC50 [2] is reported as 0.061 nM.
